Patent US20210275695A1 (CASE WESTERN RESERVE UNIVERSITY, published 2021)
Bridges are numbered along the chain shown (N, C = ends). Where no end group is shown, it is not given here. Side-chain parts run from the residue outwards. maleimide = maleimide group that reacts with the cysteine thiol to conjugate the peptide to the carrier (horseradish peroxidase); Gd(HP-DO3A) (azide, via triazole) = azido-Gd(HP-DO3A) gadolinium chelate, click-linked through a triazole; sulfo‑Cy5 = sulfo-cyanine 5 fluorescent label; HRP = horseradish peroxidase; PEG3 = NCCOCCOCCOCCC(=O)O

Experiments:
[1] = target: T1, EDB fragment (extradomain B of fibronectin), expressed in E. coli with an N-terminal 10xHis tag (UniProt P02751 1266-1356); experiment: phage display, four rounds of panning on immobilised purified EDB fragment
T1 construct: domain: EDB; also called EDB protein; purified EDB; not shown: N-terminal 10xHis tag from the pQE-T7-1 vector
T1 sequence (P02751 1266-1356): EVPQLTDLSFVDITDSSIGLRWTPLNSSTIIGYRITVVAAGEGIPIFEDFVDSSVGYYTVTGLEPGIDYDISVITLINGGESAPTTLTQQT
Description: The Ph.D C7C library (New England Biolabs, Beverly, Mass., USA) was used for screen EDB specific nonapeptides. Candidate peptides were selected by carrying out panning procedures for 4 rounds. In each round, purified EDB fragment (100 μg/ml) was immobilized on non-treated 96-well plates (Corning Costar, Tewksbury, Mass., USA) with overnight coating at 4° C. 0.5% BSA was used to block non-specific binding (1 hr, room temperature) followed by incubating with phages for 1 hr at room temperature. Extensive washing with PBST (0.1%, 0.3%, 0.5% […], respectively, for round 1-3) was used to remove non-binding phages before eluting bound phages by 0.1M Glycine-HC (pH 2.2) and neutralizing with Tris-HCl (pH 9.1). Eluted phages are tittered and amplified with E. coli (ER2758) according to the user's manual. Amplified phages in medium were purified by ultrafiltration and PEG/NaCl precipitation. At the end of round 4, properly diluted phages were cultured on LB/IPTG/Xgal plates and DNA from 29 randomly picked blue plaques were used for sequencing with supplied primers (New England Biolabs). Peptide sequences were resulted from translating of corresponding DNA sequences.
The Ph.D C7C library (New England Biolabs, Beverly, Mass.) was used to screen for EDB-specific cyclic nonapeptides. Candidate peptides were selected by panning for four rounds. […]

[2] = target: extradomain-B fibronectin (EDB-FN), human, as secreted or deposited by human cancer cells and in human tumour tissue (human) (UniProt P02751); experiment: histogram of Cy5 pixel intensities of ZD2-Cy5 staining (5 µM) of a human prostate BPH section, tissue with low EDB-FN
Sequence of extradomain-B fibronectin (EDB-FN), human, as secreted or deposited by human cancer cells and in human tumour tissue (human) (P02751 32-2477): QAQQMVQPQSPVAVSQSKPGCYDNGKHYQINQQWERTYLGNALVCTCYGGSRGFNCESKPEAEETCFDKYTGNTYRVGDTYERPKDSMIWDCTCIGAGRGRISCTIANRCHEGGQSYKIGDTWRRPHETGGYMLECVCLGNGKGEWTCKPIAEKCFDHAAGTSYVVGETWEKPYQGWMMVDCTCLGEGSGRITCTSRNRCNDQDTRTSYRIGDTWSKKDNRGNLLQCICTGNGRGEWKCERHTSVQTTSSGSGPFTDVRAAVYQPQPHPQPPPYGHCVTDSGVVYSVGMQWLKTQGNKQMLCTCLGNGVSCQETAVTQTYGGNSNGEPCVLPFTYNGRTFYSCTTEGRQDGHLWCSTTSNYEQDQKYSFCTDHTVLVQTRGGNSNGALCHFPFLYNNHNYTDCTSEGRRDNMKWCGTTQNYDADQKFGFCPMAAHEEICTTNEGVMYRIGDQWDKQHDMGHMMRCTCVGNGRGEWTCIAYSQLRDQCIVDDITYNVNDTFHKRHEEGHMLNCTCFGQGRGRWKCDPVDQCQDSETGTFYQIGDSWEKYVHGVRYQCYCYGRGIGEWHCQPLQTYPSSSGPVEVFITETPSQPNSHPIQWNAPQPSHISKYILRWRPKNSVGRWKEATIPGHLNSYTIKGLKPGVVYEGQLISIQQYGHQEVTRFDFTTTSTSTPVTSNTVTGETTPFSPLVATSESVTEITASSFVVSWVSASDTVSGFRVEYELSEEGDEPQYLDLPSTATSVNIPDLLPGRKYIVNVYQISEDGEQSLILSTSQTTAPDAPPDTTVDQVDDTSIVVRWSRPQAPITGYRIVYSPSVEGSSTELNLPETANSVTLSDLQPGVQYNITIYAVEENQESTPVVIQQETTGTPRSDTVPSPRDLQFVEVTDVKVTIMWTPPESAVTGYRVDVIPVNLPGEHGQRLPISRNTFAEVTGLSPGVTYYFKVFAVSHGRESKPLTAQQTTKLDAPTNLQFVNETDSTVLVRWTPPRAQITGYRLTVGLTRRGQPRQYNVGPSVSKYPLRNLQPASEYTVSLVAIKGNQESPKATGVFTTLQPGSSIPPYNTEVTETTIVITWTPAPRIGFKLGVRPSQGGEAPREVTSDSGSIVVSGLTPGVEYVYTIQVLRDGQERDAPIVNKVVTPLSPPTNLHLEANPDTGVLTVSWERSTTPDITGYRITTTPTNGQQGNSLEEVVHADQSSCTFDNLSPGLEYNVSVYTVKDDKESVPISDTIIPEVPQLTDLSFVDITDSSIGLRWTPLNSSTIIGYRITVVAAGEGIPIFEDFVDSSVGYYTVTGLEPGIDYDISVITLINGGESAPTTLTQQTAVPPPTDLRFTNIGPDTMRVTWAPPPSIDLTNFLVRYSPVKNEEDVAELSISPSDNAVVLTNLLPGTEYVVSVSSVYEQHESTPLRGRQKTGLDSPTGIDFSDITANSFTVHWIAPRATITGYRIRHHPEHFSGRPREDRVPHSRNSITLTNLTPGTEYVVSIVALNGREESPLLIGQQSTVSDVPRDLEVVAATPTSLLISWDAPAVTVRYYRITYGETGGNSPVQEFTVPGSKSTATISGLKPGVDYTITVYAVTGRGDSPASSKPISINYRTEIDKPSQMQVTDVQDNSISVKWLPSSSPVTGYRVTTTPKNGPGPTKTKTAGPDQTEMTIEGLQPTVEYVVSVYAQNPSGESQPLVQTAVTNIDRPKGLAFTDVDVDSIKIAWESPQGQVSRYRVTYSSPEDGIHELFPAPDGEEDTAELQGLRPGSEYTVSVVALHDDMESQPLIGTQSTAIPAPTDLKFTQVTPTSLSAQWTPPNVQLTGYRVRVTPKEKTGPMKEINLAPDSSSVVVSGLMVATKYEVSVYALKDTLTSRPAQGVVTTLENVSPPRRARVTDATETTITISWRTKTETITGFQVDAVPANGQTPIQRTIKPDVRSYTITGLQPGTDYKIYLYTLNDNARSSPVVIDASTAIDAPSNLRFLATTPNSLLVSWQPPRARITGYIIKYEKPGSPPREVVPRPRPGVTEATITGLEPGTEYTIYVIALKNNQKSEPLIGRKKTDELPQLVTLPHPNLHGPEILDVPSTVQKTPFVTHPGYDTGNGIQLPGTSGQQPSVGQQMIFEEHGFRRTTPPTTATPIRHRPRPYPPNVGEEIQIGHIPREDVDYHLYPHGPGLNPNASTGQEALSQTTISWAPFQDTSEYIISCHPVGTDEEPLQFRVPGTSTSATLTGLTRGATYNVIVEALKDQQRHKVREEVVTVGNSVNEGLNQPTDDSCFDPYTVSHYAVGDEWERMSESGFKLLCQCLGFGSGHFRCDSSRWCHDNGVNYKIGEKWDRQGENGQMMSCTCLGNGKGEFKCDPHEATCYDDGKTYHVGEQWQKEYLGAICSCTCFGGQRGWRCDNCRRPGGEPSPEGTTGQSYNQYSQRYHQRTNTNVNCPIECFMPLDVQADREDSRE

[3] = target: extradomain-B fibronectin (EDB-FN), human, as secreted or deposited by human cancer cells and in human tumour tissue (human) (UniProt P02751); experiment: histogram of Cy5 pixel intensities of ZD2-Cy5 staining (5 µM) of a human prostate tumor section, GS=7
[4] = target: extradomain-B fibronectin (EDB-FN), human, as secreted or deposited by human cancer cells and in human tumour tissue (human) (UniProt P02751); experiment: histogram of Cy5 pixel intensities of ZD2-Cy5 staining (5 µM) of a human prostate tumor section, GS=9
[5] = target: T1, EDB fragment (extradomain B of …); experiment: SPR (Biacore T100), EDB protein immobilised on a CM5 chip, Scatchard plot
Description: The ZD2 peptide sequence, TVRTSAD (SEQ ID NO: 1), was synthesized in solid phase using Fmoc chemistry. A short spacer, Fmoc-9-amino-4,7-dioxanonanoic acid (Fmoc-NH-PEG₂-CH₂CH₂COOH), and 5-hexynoic acid, were also sequentially conjugated in solid phase followed by trifluoroacetic acid (TFA) treatment, which yielded ZD2-PEG-propargyl. Azido-Gd(HP-DO3A) was synthesized as reported previously. Click chemistry reaction between ZD2-PEG-propargyl (1 Eq) and azido-Gd(HP-DO3A) (1.1 Eq) was performed in a 2:1 mixture of t-butanol and water under nitrogen following addition of [Cu(MeCN)₄]PF₆ (0.02 Eq) and TBTA (Tris[(1-benzyl-1H-1,2,3-triazol-4-yl)methyl]amine, 0.02 Eq). The final product, named ZD2-Gd(HP-DO3A), was purified by high performance liquid chromatography (HPLC) on an Agilent 1100 HPLC system equipped with a semi-preparative C18 column. […] The Gd(III) content was measured by inductively coupled plasma optical emission spectroscopy (ICP-OES Optima 3100XL, Perkin-Elmer, Norwalk, Conn.). […] Sensorgrams generated from the binding between contrast agents and EDB were recorded with Biacore T100 (GE healthcare, Waukesha, Wis.), and analyzed using Scatchard plot. Affinity was calculated by fitting data into a linear line, with the slope of the line representing −1/Kd.

[6] = target: T2, EDA (extradomain A of fibronectin) (UniProt P02751 1722-1811, limits assumed); experiment: ELISA, HRP-conjugated peptide
T2 construct: domain: EDA
T2 sequence (P02751 1722-1811 limits assumed): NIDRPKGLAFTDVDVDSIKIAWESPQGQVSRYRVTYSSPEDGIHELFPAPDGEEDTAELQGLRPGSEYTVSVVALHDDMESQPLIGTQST

[7] = target: T1, EDB fragment (extradomain B of …); experiment: ELISA, HRP-conjugated peptide on EDB protein

B1: cyclic ZD2 peptide (CTVRTSADC) as selected by phage display (peptide)
peptide: CTVRTSADC
modifications: disulfide 1-9 (inferred); not fully specified
notes: also called cyclic nonapeptide ZD2
B1: binds [1].

B2: ZD2-Cy5 (cyclic ZD2 peptide … labelled with Cy5 through a short PEG linker) (peptide)
peptide: {sulfo‑Cy5-PEG3}-CTVRTSADC-OH
modifications: disulfide 1-9
B2 gave a percent pixel counts of Cy5 pixel value 50 to 255 [2] of 2.1%, a percent pixel counts of Cy5 pixel value 50 to 255 [3] of 40% and a percent pixel counts of Cy5 pixel value 50 to 255 [4] of 72.2%.

B3: ZD2-Gd(HP-DO3A) (linear ZD2 peptide TVRTSAD joined through PEG and a triazole to Gd(HP-DO3A)) (peptide)
peptide: {Gd(HP-DO3A) (azide, via triazole)-5‑hexynoic acid-9‑amino‑4,7‑dioxanonanoic acid}-TVRTSAD
modifications: also: Gd complex
notes: also called ZD2-Gd(DO3A)
In the case of B3, the Kd [5] is reported as 1.7 µM.

B4: l-ZD2-HRP (linear ZD2 with C-terminal cysteine, NH2-TVRTSADC-COOH, conjugated to horseradish peroxidase) (peptide)
peptide: H-TVRTSADC([maleimide-HRP])-OH
B4: no binding [6].

B5: CERAK-HRP (peptide)
peptide: CERAK
modifications: also: conjugated to HRP, 'similarly' to l-ZD2-HRP
notes: Control peptide
B5: no binding [7].
